Results: patent US10941182 (Amgen, dated 2021)
Starred links: 1 amine or outer side, 2 acyl side, 3 side chain; linkers in the order of their positions; H or OH if unused. Non-standard residues stand in square brackets, D forms with d. No end group written: not given here. *: point of attachment. dBip = N[C@H](Cc1ccc(-c2ccccc2)cc1)C(=O)O; Oic = O=C(O)[C@@H]1C[C@@H]2CCCC[C@@H]2N1; Phe(4-Cl) = N[C@@H](Cc1ccc(Cl)cc1)C(=O)O; dPhe(4-Cl) = N[C@H](Cc1ccc(Cl)cc1)C(=O)O; Phe(4-I) = N[C@@H](Cc1ccc(I)cc1)C(=O)O; γGlu = O=C(O)[C@H](CCC(=O)[*:2])N[*:1]; d1Nal = N[C@H](Cc1cccc2ccccc12)C(=O)O; NMeR = CN[C@@H](CCCNC(=N)N)C(=O)O; Tridecanoyl = CCCCCCCCCCCCC(=O)*; hArg = N=C(N)NCCCC[C@H](N)C(=O)O; Cha = N[C@@H](CC1CCCCC1)C(=O)O; NMeL = CN[C@@H](CC(C)C)C(=O)O; code O = not defined here; Nle = CCCC[C@H](N)C(=O)O; Orn = NCCC[C@H](N)C(=O)O; AEEA = NCCOCCOCC(=O)O; Aib = CC(C)(N)C(=O)O; BLeu = β-leucine; Sar = CNCC(=O)O

Key:
human APJ receptor = target: T1, human APJ receptor (human, UniProt P35414 1-380); assay: cell-based or functional assay
T1 sequence (looked up): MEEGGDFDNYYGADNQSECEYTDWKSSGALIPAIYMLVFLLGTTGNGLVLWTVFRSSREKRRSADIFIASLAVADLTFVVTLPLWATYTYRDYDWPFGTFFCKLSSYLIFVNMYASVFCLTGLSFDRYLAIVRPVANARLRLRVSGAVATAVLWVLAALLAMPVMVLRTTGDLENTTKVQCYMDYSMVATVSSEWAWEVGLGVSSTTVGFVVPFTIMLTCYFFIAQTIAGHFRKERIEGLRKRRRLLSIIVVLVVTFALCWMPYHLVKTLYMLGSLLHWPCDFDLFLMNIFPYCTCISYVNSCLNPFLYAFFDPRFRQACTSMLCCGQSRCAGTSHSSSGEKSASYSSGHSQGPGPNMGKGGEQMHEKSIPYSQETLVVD

rat APJ receptor = target: T2, rat APJ receptor (rat, UniProt Q9JHG3 1-377); assay: cell-based or functional assay
T2 sequence (looked up): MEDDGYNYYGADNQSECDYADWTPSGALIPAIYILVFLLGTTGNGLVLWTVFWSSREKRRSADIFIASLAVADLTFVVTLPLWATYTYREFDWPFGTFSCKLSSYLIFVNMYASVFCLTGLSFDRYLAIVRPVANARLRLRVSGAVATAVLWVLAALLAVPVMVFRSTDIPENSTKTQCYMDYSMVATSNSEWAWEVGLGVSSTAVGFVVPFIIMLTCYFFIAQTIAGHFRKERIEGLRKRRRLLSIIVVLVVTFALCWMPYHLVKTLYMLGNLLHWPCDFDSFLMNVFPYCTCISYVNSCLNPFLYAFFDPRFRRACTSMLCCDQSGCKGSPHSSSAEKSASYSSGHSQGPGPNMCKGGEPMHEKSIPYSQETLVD

[Orn]F[NMeR][hArg]Q[hArg]P[hArg][Cha]SHKG[Oic][Nle]P[Phe(4-Cl)] [apelin polypeptide SEQ ID NO: 669]
EC50 Human APJ Receptor (human APJ receptor): 5.3 nM | EC50 Rat APJ Receptor (rat APJ receptor): 5.59 nM

[Orn]F[hArg][hArg]Q[hArg][Aib][hArg][Cha]SHKG[Oic][Nle]P[Phe(4-Cl)] [apelin polypeptide SEQ ID NO: 677]
EC50 Human APJ Receptor (human APJ receptor): 3.5 nM | EC50 Rat APJ Receptor (rat APJ receptor): 3.48 nM

[Orn]F[hArg][hArg]Q[NMeR]P[NMeR][Cha]SHKG[Oic][Nle]P[Phe(4-Cl)] [apelin polypeptide SEQ ID NO: 672]
EC50 Human APJ Receptor (human APJ receptor): 0.445 nM | EC50 Rat APJ Receptor (rat APJ receptor): 0.845 nM

B1: apelin polypeptide SEQ ID NO: 283 (peptide)
peptide: Tridecanoyl-[γGlu][AEEA][AEEA][dQ][hArg]P[dR][Cha]SHKG[Oic][Nle][dPhe(4-Cl)]-OH
SMILES: CCCCCCCCCCCCC(=O)N[C@@H](CCC(=O)NCCOCCOCC(=O)NCCOCCOCC(=O)N[C@H](CCC(N)=O)C(=O)N[C@@H](CCCCNC(=N)N)C(=O)N1CCC[C@H]1C(=O)N[C@H](CCCNC(=N)N)C(=O)N[C@@H](CC1CCCCC1)C(=O)N[C@@H](CO)C(=O)N[C@@H](Cc1c[nH]cn1)C(=O)N[C@@H](CCCCN)C(=O)NCC(=O)N1[C@H](C(=O)N[C@@H](CCCC)C(=O)N[C@H](Cc2ccc(Cl)cc2)C(=O)O)C[C@@H]2CCCC[C@@H]21)C(=O)O
EC50 Human APJ Receptor (human APJ receptor): 9.74 nM | EC50 Rat APJ Receptor (rat APJ receptor): 15.6 nM

[Orn]F[hArg][hArg]Q[NMeR]P[hArg][Cha]SHKG[Oic][Nle]P[Phe(4-Cl)] [apelin polypeptide SEQ ID NO: 671]
EC50 Human APJ Receptor (human APJ receptor): 0.162 nM | EC50 Rat APJ Receptor (rat APJ receptor): 0.387 nM

Q[hArg]P[NMeR][Cha]SHKG[Oic][Nle]P[Phe(4-Cl)] [apelin polypeptide SEQ ID NO: 675]
EC50 Human APJ Receptor (human APJ receptor): 0.159 nM | EC50 Rat APJ Receptor (rat APJ receptor): 0.189 nM

B2: apelin polypeptide SEQ ID NO: 282 (peptide)
peptide: Tridecanoyl-[γGlu][AEEA][AEEA][dQ][hArg]P[dR][Cha]SHKG[Oic][Nle][Phe(4-Cl)]-OH
SMILES: CCCCCCCCCCCCC(=O)N[C@@H](CCC(=O)NCCOCCOCC(=O)NCCOCCOCC(=O)N[C@H](CCC(N)=O)C(=O)N[C@@H](CCCCNC(=N)N)C(=O)N1CCC[C@H]1C(=O)N[C@H](CCCNC(=N)N)C(=O)N[C@@H](CC1CCCCC1)C(=O)N[C@@H](CO)C(=O)N[C@@H](Cc1c[nH]cn1)C(=O)N[C@@H](CCCCN)C(=O)NCC(=O)N1[C@H](C(=O)N[C@@H](CCCC)C(=O)N[C@@H](Cc2ccc(Cl)cc2)C(=O)O)C[C@@H]2CCCC[C@@H]21)C(=O)O
EC50 Human APJ Receptor (human APJ receptor): 5.79 nM | EC50 Rat APJ Receptor (rat APJ receptor): 13.3 nM

B3: apelin polypeptide SEQ ID NO: 284 (peptide)
peptide: Tridecanoyl-[γGlu][AEEA][AEEA]Q[dR]P[NMeR][Cha]SHKG[Oic][Nle]P[dPhe(4-Cl)]-OH
SMILES: CCCCCCCCCCCCC(=O)N[C@@H](CCC(=O)NCCOCCOCC(=O)NCCOCCOCC(=O)N[C@@H](CCC(N)=O)C(=O)N[C@H](CCCNC(=N)N)C(=O)N1CCC[C@H]1C(=O)N(C)[C@@H](CCCNC(=N)N)C(=O)N[C@@H](CC1CCCCC1)C(=O)N[C@@H](CO)C(=O)N[C@@H](Cc1c[nH]cn1)C(=O)N[C@@H](CCCCN)C(=O)NCC(=O)N1[C@H](C(=O)N[C@@H](CCCC)C(=O)N2CCC[C@H]2C(=O)N[C@H](Cc2ccc(Cl)cc2)C(=O)O)C[C@@H]2CCCC[C@@H]21)C(=O)O
EC50 Human APJ Receptor (human APJ receptor): > 4170 nM | EC50 Rat APJ Receptor (rat APJ receptor): > 4170 nM

[Orn]F[hArg][NMeR]Q[hArg]P[hArg][Cha]SHKG[Oic][Nle]P[Phe(4-Cl)] [apelin polypeptide SEQ ID NO: 670]
EC50 Human APJ Receptor (human APJ receptor): 0.131 nM | EC50 Rat APJ Receptor (rat APJ receptor): 0.254 nM

[Orn]F[hArg][hArg]Q[hArg]P[hArg][Cha][Sar]HKG[Oic][Nle]P[Phe(4-Cl)] [apelin polypeptide SEQ ID NO: 678]
EC50 Human APJ Receptor (human APJ receptor): 0.664 nM | EC50 Rat APJ Receptor (rat APJ receptor): 2.11 nM

Tridecanoyl-[γGlu][AEEA][AEEA][BLeu][hArg]P[dR][Cha]SHKG[Oic][Nle]P[Phe(4-Cl)]-OH [apelin polypeptide SEQ ID NO: 278]
EC50 Human APJ Receptor (human APJ receptor): 10.1 nM | EC50 Rat APJ Receptor (rat APJ receptor): 14.5 nM

B4: apelin polypeptide SEQ ID NO: 279 (peptide)
peptide: Tridecanoyl-[γGlu][AEEA][AEEA]Q[NMeR]P[dR][Cha]SHKG[Oic][Nle]P[Phe(4-Cl)]-OH
SMILES: CCCCCCCCCCCCC(=O)N[C@@H](CCC(=O)NCCOCCOCC(=O)NCCOCCOCC(=O)N[C@@H](CCC(N)=O)C(=O)N(C)[C@@H](CCCNC(=N)N)C(=O)N1CCC[C@H]1C(=O)N[C@H](CCCNC(=N)N)C(=O)N[C@@H](CC1CCCCC1)C(=O)N[C@@H](CO)C(=O)N[C@@H](Cc1c[nH]cn1)C(=O)N[C@@H](CCCCN)C(=O)NCC(=O)N1[C@H](C(=O)N[C@@H](CCCC)C(=O)N2CCC[C@H]2C(=O)N[C@@H](Cc2ccc(Cl)cc2)C(=O)O)C[C@@H]2CCCC[C@@H]21)C(=O)O
EC50 Human APJ Receptor (human APJ receptor): 3.29 nM | EC50 Rat APJ Receptor (rat APJ receptor): 19.3 nM

[Orn]F[hArg][hArg]Q[hArg][Sar][hArg][Cha]SHKG[Oic][Nle]P[Phe(4-Cl)] [apelin polypeptide SEQ ID NO: 676]
EC50 Human APJ Receptor (human APJ receptor): 0.762 nM | EC50 Rat APJ Receptor (rat APJ receptor): 0.84 nM

B5: apelin polypeptide SEQ ID NO: 285 (peptide)
peptide: Tridecanoyl-[γGlu][AEEA][AEEA]Q[dR]P[NMeR][Cha]SHKG[Oic][Nle][d1Nal]-OH
SMILES: CCCCCCCCCCCCC(=O)N[C@@H](CCC(=O)NCCOCCOCC(=O)NCCOCCOCC(=O)N[C@@H](CCC(N)=O)C(=O)N[C@H](CCCNC(=N)N)C(=O)N1CCC[C@H]1C(=O)N(C)[C@@H](CCCNC(=N)N)C(=O)N[C@@H](CC1CCCCC1)C(=O)N[C@@H](CO)C(=O)N[C@@H](Cc1c[nH]cn1)C(=O)N[C@@H](CCCCN)C(=O)NCC(=O)N1[C@H](C(=O)N[C@@H](CCCC)C(=O)N[C@H](Cc2cccc3ccccc23)C(=O)O)C[C@@H]2CCCC[C@@H]21)C(=O)O
EC50 Human APJ Receptor (human APJ receptor): 8.22 nM | EC50 Rat APJ Receptor (rat APJ receptor): 122 nM

Tridecanoyl-[γGlu][AEEA][AEEA][dQ][hArg]P[dR][BLeu]SHKG[Oic][Nle]P[dPhe(4-Cl)]-OH [apelin polypeptide SEQ ID NO: 281]
EC50 Human APJ Receptor (human APJ receptor): 14.8 nM | EC50 Rat APJ Receptor (rat APJ receptor): 87.3 nM

B6: apelin polypeptide SEQ ID NO: 21 (peptide)
peptide: Ac-[hArg][hArg]Q[hArg][Oic][dR][NMeL]SHKG[Oic][Phe(4-I)]P[dBip]-OH
SMILES: CC(=O)N[C@@H](CCCCNC(=N)N)C(=O)N[C@@H](CCCCNC(=N)N)C(=O)N[C@@H](CCC(N)=O)C(=O)N[C@@H](CCCCNC(=N)N)C(=O)N1[C@H](C(=O)N[C@H](CCCNC(=N)N)C(=O)N(C)[C@@H](CC(C)C)C(=O)N[C@@H](CO)C(=O)N[C@@H](Cc2c[nH]cn2)C(=O)N[C@@H](CCCCN)C(=O)NCC(=O)N2[C@H](C(=O)N[C@@H](Cc3ccc(I)cc3)C(=O)N3CCC[C@H]3C(=O)N[C@H](Cc3ccc(-c4ccccc4)cc3)C(=O)O)C[C@@H]3CCCC[C@@H]32)C[C@@H]2CCCC[C@@H]21
EC50 Human APJ Receptor (human APJ receptor): 0.57 nM | EC50 Rat APJ Receptor (rat APJ receptor): 1.8 nM

B7: apelin polypeptide SEQ ID NO: 280 (peptide)
peptide: Tridecanoyl-[γGlu][AEEA][AEEA][dQ][NMeR]P[dR][Cha]SHKG[Oic][Nle]P[Phe(4-Cl)]-OH
SMILES: CCCCCCCCCCCCC(=O)N[C@@H](CCC(=O)NCCOCCOCC(=O)NCCOCCOCC(=O)N[C@H](CCC(N)=O)C(=O)N(C)[C@@H](CCCNC(=N)N)C(=O)N1CCC[C@H]1C(=O)N[C@H](CCCNC(=N)N)C(=O)N[C@@H](CC1CCCCC1)C(=O)N[C@@H](CO)C(=O)N[C@@H](Cc1c[nH]cn1)C(=O)N[C@@H](CCCCN)C(=O)NCC(=O)N1[C@H](C(=O)N[C@@H](CCCC)C(=O)N2CCC[C@H]2C(=O)N[C@@H](Cc2ccc(Cl)cc2)C(=O)O)C[C@@H]2CCCC[C@@H]21)C(=O)O
EC50 Human APJ Receptor (human APJ receptor): 2.04 nM | EC50 Rat APJ Receptor (rat APJ receptor): 4.47 nM

[code O]F[hArg][NMeR]Q[NMeR]P[NMeR][Cha]SHKG[Oic][Nle]P[Phe(4-Cl)] (reading uncertain) [apelin polypeptide SEQ ID NO: 673]
EC50 Human APJ Receptor (human APJ receptor): 1.34 nM | EC50 Rat APJ Receptor (rat APJ receptor): 1.34 nM

B8: apelin polypeptide SEQ ID NO: 22 (peptide)
peptide: Ac-[hArg][hArg]Q[dR]P[NMeR][Cha]SHKG[Oic][Phe(4-I)]P[dBip]-OH
SMILES: CC(=O)N[C@@H](CCCCNC(=N)N)C(=O)N[C@@H](CCCCNC(=N)N)C(=O)N[C@@H](CCC(N)=O)C(=O)N[C@H](CCCNC(=N)N)C(=O)N1CCC[C@H]1C(=O)N(C)[C@@H](CCCNC(=N)N)C(=O)N[C@@H](CC1CCCCC1)C(=O)N[C@@H](CO)C(=O)N[C@@H](Cc1c[nH]cn1)C(=O)N[C@@H](CCCCN)C(=O)NCC(=O)N1[C@H](C(=O)N[C@@H](Cc2ccc(I)cc2)C(=O)N2CCC[C@H]2C(=O)N[C@H](Cc2ccc(-c3ccccc3)cc2)C(=O)O)C[C@@H]2CCCC[C@@H]21
EC50 Human APJ Receptor (human APJ receptor): 1.52 nM | EC50 Rat APJ Receptor (rat APJ receptor): 4.52 nM
